Results from PMC12409433.

Columns and labels:
[1] = target: Klebsiella pneumoniae N-acetylglucosamine-6-phosphate deacetylase (NagA) (Klebsiella pneumoniae); experiment: SEC-MALS; Superdex 200 Increase 10/300 GL, 0.5 ml/min, 20°C, DAWN-Treos detector; BSA for calibration
[2] = target: Klebsiella pneumoniae N-acetylglucosamine-6-phosphate deacetylase (NagA) (Klebsiella pneumoniae); experiment: SEC; Superdex 200 Increase 10/300 GL, 20 mM Tris-HCl pH 8.0, 150 mM NaCl; apparent mass by calibration with molecular weight standards

stoichiometry N [1]: 4
stoichiometry N [2]: 4
Substance: Klebsiella pneumoniae N-acetylglucosamine-6-phosphate deacetylase (NagA) (enzyme)
